Data on two molecules can be found in patent publication US8329409B2, “Methods, kits, and antibodies for detecting parathyroid hormone” (Scantibodies Laboratory, Inc., priority 1999, dated 2012).

Assay [1] relates to Sprague-Dawley rats. As to the kind of experiment: Phosphaturic response (clearance studies) in rats. It counts as in vivo. How it is done:
Phosphaturic response. Normal female Sprague-Dawley rats weighing 225 to 250 g were prepared for clearance studies under light anesthesia. Polyethylene catheters (PE50) were placed in the femoeral artery for the collection of blood and measurement of blood pressure (Blood Pressure Analyzer; Micro-Medic, Inc., Louisville, Ky., USA), in the femoral vein for infusion and in the bladder for the collection of urine. Rats were placed in Plexiglas® holders and allowed to recover from the effect of the anesthetic for one hour. A priming dose (0.6 mL) of chemical inulin in saline was administered over a period of three minutes to achieve a plasma inulin level between […]. A solution of saline containing inulin to maintain this level and calcium gluconate to deliver 0.5 mg. Calcium was infused at the rate of 0.03 mL/min. After equilibration, a total of four 30-minute urine collections was obtained.
To assess the effect of hPTH 1-84 on phosphate excretion, urine was collected during two control periods, after which rats received a priming bolus of 1.8 μg of hPTH 1-84 followed by a sustained infusion that delivered a total of 8.2 μg of I-PTH. After an equilibration period of 20 minutes, two 30-minute urine collections were obtained. […]
Blood samples and blood pressure measurements were recorded at the beginning and end of the baseline period, at the beginning of the PTH infusion period, and at the end of the study. The concentration of inulin in plasma and urine was determined by the method of Fuhr, Kaczmarczyk, and Kruttgen, Klin Wochenschr, 33:729-730 (1955). The estimation of the glomerular filtration rate (GFR) by inulin clearance and the calculation of the fractional urinary excretion rate of phosphorus (FEP04) were performed in the standard fashion. Blood samples were centrifuged, and plasma phosphorus and calcium concentrations were measured.

The test system of assay [2] is Nichols Intact PTH assay. As to the kind of experiment: Nichols Intact (I-Nichols) PTH assay, recognition of hPTH 1-84 vs hPTH 7-84. It counts as binding. To be noted: compared with hPTH 1-84. An excerpt:
The present whole IRMA assay was compared to a conventional intact PTH or I-PTH immunoassay, the Allegro Nichols Intact-PTH assay, (which is commercially available and made by Nichols Institute Diagnostics of San Juan Capistrano, Calif., U.S.A.), in both PTH normal persons and those suffering from chronic uremia. This I-PTH immunoassay, detects both PTH7-84 and wPTH (see FIG. 10).
This new Whole PTH two-site assay (Scantibodies Laboratories, Santee, Calif., USA) first employees and antibody that recognizes the 39-84 region of the PTH molecule. This antibody, produced in a goat and affinity purified, is present in relative excess and is immobilized onto polystyrene-coated tubes. The second antibody, also developed in a goat, was also affinity purified and recognizes only the first six amino acids (1 to 6; Ser-Val-Ser-Glu-Ile-Gln) of the human PTH molecule (FIG. 1). This anti-hPTH assay uses synthetic human PTH 1-84 as the standard, with a limit of detection of approximately 1 to 2 pg/mL. Normal values range from 5 to 35 pg/mL. […] The Whole PTH assay was compared with the Intact PTH assay purchases from the Nichols Institute (I-Nichols, San Jan Capistrano, Calif., USA). Synthetic human PTH 1-84 and 7-84 were purchased from Bachem (Torrance, Calif. USA). To assess circulating levels of hPTH 1-84 and non-(1-84) PTH, heparinized blood samples were obtained before dialysis from 28 patients who had been maintained on chronic hemodialysis for 1.2 to 7.5 years and from 14 renal transplant patients (1 to 6 years).

Assay [3] relates to PTX rats. As to the kind of experiment: Calcemic response in parathyroidectomized (PTX) rats. It counts as in vivo, Sprague-Dawley rats. On the procedure: Calcemic response. Normal female Sprague-Dawley rats weighing 225 to 250 g (Harlan, Indianapolis, Ind., USA) were parathyroidectomized (PTX) and fed a 0.02% calcium diet. Rats with a plasma calcium below 7.0 mg/dL after overnight fasting were included in the study. A 20 μg dose of hPTH 1-84 or 7-84 was given intraperitoneally to PTX rats in four doses of 5 μg each at 30-minute intervals (0, 30, 60, and 90 minutes). For control studies, the rats received vehicle (saline solution) alone. Blood was drawn via the tail at 0, 60, 90, and 120 minutes. For competition experiments, rats received an injection of hPTH 7-84 10 minutes prior to each injection of hPTH 1-84. The molar ratio of hPTH 7-84/hPTH 1-84 was 1:1.
Total plasma calcium levels were determined using an atomic absorption spectrophotometer (model 1100B; Perkin Elmer, Norwalk, Conn., USA). Plasma phosphorus levels were determined using an autoanalyzer (COBAS MIRA Plus; Roche, Newark, N.J., USA).

The subject of assay [4] is Whole PTH assay (goat antibodies to PTH 39-84 and to the first six amino acids of human PTH). As to the kind of experiment: Whole PTH IRMA assay, recognition of hPTH 1-84 vs hPTH 7-84. It counts as binding. To be noted: hPTH 7-84 at a concentration as high as 10,000 pg/mL. On the procedure:
Another method would be to couple the initial wPTH sequence antibody to colloidal solid supports, such as latex particles. More specifically, one can create a signal antibody by iodinating 50 micrograms of affinity purified goat anti-(1-6) PTH antibody (Scantibodies Laboratory, Inc., Santee Calif., U.S.A.) by oxidation with chloramine T, incubation for 25 seconds at room temperature with 1 millicurie of 125-1 radioisotope and reduction with sodium metabisulfate. […] The fractions collected from the desalting column are measured in a gamma counter and those fractions representing the 125-1-goat anti-(1-6) PTH antibody are pooled and diluted to approximately 300,000 D PM (disintegrations per minute) per 100 microliters. […]
To conduct a whole PTH assay of a sample, 200 microliter samples of human serum are added to the solid phase antibody coated tubes. […] Radioactivity on the solid phase, which amount corresponds to the quantity of wPTH present, is measured using a gamma counter. The radioactivity data for the samples is processed by conventional analysis with use of the results from standards and controls and computer software in order that the concentration of whole PTH in the samples may be ascertained. […]

Assay [5] relates to ROS/17.2 cells. As to the kind of experiment: cAMP production in osteoblastic cell line ROS/17.2. It counts as cell-based, rat. The following applies: for effect on cAMP production: 10^-11 to 10^-8 mol/L, no-effect statement at 10^-8 mol/L. On the procedure:
Osteoblastic cell line. To compare the biological effects of the two peptides (hPTH 1-84 and 7-84), intracellular cAMP production was measured in the rate osteosarcoma cell line ROS/17.2, which has an osteoblastic phenotype and is known to increase cAMP production in response to PTH. Cells were cultured in Ham's F12 media containing 10% fetal bovine serum. Cells were plated out in 12-well plates at a density of 30,000 cells per well and grown to confluence. Cells were washed three times with KHMS buffer at 37° C. (KCI 4.0 mmol/L, CaCl2 1.25 mmol/L, MgSO4 1.25 mmol/L, KH2PO4 1.2 mmol/L, HEPES 10 mmol/L, NaCl 100 mmol/L, NaHCO3 37 mmol/L, and glucose 10 mmol/L, pH 7.5). cAMP production was measured using 500 μL of KHMS buffer (37°) containing isobutyl-1 methylxantine (IBMX) 1.0 mmol/L and various concentrations (10^−11 to 10^−8 mol/L) of hPTH 1-84 or hPTH 7-84. After a five-minute incubation, 100 μL of 1.8 mol/L pechloric acid were added. After an additional five-minute incubation at room temperature, 100 μL of 3 mol/KHCO3 were added to neutralize the acid. Samples were centrifuged at 3000 rpm for 15 minutes, and the supernatants were assayed for cAMP [26].

“And” between values parts separate entries of the source, which are not always exact repeats. Identical values can stand only once. “Also recorded” adds a separate entry of the source.

B1: hPTH 7-84: Synthetic human PTH 7-84 purchased from Bachem; large non-(1-84) PTH fragment, PTH antagonist (PIN) (peptide)
peptide: LMHNLGKHLNSMERVEWLRKKLQDVHNFVALGAPLAPRDAGSQRPRKKEDNVLVESHEKSLGEADKADVNVLTKAKSQ
Regarding B1, the “decrease of the increase in FEP04 (phosphaturia) induced by hPTH 1-84” value in assay [1] (co-administration of hPTH 7-84 with hPTH 1-84 (molar ratio 4:1)) was 50.2%. In addition, the “glomerular filtration rate (GFR), treatment period” value in assay [1] (hPTH 7-84 given simultaneously with hPTH 1-84 (molar ratio 4:1), increased from 2.1±0.1, N=8, P<0.05) turned out to be 2.6 ± 0.2 mL/min. The entries for the “recognition by the Nichols Intact PTH assay” value in assay [2], in assay [2] (listed as 7-84) and in assay [2] (listed as PTH7-84) were “does not differentiate”, “did not discriminate” and “detects”, respectively. The “decrease in plasma calcium” value in assay [3] (PTX rats fed a 0.02% calcium diet, 20 μg intraperitoneally in four doses of 5 μg, N=5, P<0.05) was 0.30 ± 0.08 mg/dL. Also, the “decrease of the calcemic response induced by hPTH 1-84 alone” value in assay [3] (hPTH 7-84 given with hPTH 1-84 in a 1:1 molar ratio, PTX rats, N=6, P<0.001) was 94%. Also, the “detection by the Whole PTH assay” value in assay [4] was “undetectable”. For the same molecule, the “effect on cAMP production” value in assay [5] was “no effect”.

B2: hPTH 1-84: Synthetic human PTH 1-84 purchased from Bachem; complete 84 amino acid human parathyroid hormone (SEQ ID NO: 1) (peptide)
chain: SVSEIQLMHNLGKHLNSMERVEWLRKKLQDVHNFVALGAPLAPRDAGSQRPRKKEDNVLVESHEKSLGEADKADVNVLTKAKSQ
Turning to B2, in assay [1] (rats infused with hPTH 1-84 alone, control period 1.8±0.3, N=10), the “glomerular filtration rate (GFR), treatment period” value was found to be 1.8 ± 0.1 mL/min. In addition, the “fractional excretion of phosphate (FEP04), treatment period” value in assay [1] (rats infused with hPTH 1-84 alone, increased from 11.9±2.4, N=10, P<0.001) came out at 27.7±2.4%. Also, in assay [3] (PTX rats fed a 0.02% calcium diet, 20 μg intraperitoneally in four doses of 5 μg, N=9, P<0.001), the “increase in plasma calcium” value was 0.65 ± 0.10 mg/dL. For the same molecule, in assay [4], the “detection by the Whole PTH assay” value was “detected with a high degree of sensitivity”. In assay [5] (10^-8 mol/L peptide, five-minute incubation, increased from 18.1±1.25 nmol/well, N=6), the “intracellular cAMP after treatment” value is 738±4.13 nmol/well and 738±4.1 nmol/well. Also, the “effect on cAMP production” value in assay [5] is on record as “increased cAMP production in a does-dependent manner; also recorded: increased cAMP production in a dose-dependent manner”.
